Paper PMC6821195, “The internal interaction in RBBP5 regulates assembly and activity of MLL1 methyltransferase complex” (Nucleic Acids Research, 2019)
Positions count from the first letter of the chain named. Numbers in names are those of the source. Read-outs that look alike come from different tables or passages of the source.

T1: RBBP5 WD40 propeller (residues 2–333), Q15291
T1 chain: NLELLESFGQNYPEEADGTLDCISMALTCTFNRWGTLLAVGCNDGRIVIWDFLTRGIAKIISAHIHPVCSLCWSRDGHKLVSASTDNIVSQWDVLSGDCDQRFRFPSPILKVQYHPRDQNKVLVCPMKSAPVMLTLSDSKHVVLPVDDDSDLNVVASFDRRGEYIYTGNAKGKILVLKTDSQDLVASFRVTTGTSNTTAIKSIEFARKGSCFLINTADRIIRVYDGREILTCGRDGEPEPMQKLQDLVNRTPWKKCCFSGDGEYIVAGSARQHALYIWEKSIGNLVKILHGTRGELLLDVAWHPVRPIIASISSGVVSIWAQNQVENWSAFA

B1: RBBP5_(390–480d) (C-terminal distal region 390–480 with the 422–443 loop deletion) (domain or fragment, human, UniProt Q15291 390-480, looked up)
chain: DEELEDSKALLYLPIAPEVEDPEENPYGPPPDGSQPPKKKPKTTNIELQGVPNDEVHPLLGVKGDGKSK
notes: RBBP5, human, residues 390-480 with the loop 422-443 deleted; also called RBBP5_(CTDM); C-Terminal Distal Minimized; source: Rosetta cells, purified (Ni-NTA, on-beads Ulp1 digestion, SEC)
B2: RBBP5_(CTDM) (RBBP5_(390–480d)) I457A (domain or fragment, human, UniProt Q15291 390-480, looked up)
chain: B1 chain with I46A
notes: RBBP5, human, residues 390-480 with the loop 422-443 deleted, I457A; source: Rosetta cells, purified (Ni-NTA, on-beads Ulp1 digestion, SEC)
B3: RBBP5_(CTDM) (RBBP5_(390–480d)) L399A (domain or fragment, human, UniProt Q15291 390-480, looked up)
chain: B1 chain with L10A
notes: RBBP5, human, residues 390-480 with the loop 422-443 deleted, L399A; source: Rosetta cells, purified (Ni-NTA, on-beads Ulp1 digestion, SEC)
B4: RBBP5_(CTDM) (RBBP5_(390–480d)) L400A (domain or fragment, human, UniProt Q15291 390-480, looked up)
chain: B1 chain with L11A
notes: RBBP5, human, residues 390-480 with the loop 422-443 deleted, L400A; source: Rosetta cells, purified (Ni-NTA, on-beads Ulp1 digestion, SEC)
B5: RBBP5_(CTDM) (RBBP5_(390–480d)) L459A (domain or fragment, human, UniProt Q15291 390-480, looked up)
chain: B1 chain with L48A
notes: RBBP5, human, residues 390-480 with the loop 422-443 deleted, L459A; source: Rosetta cells, purified (Ni-NTA, on-beads Ulp1 digestion, SEC)
B6: RBBP5_(CTDM) (RBBP5_(390–480d)) L470A (domain or fragment, human, UniProt Q15291 390-480, looked up)
chain: B1 chain with L59A
notes: RBBP5, human, residues 390-480 with the loop 422-443 deleted, L470A; source: Rosetta cells, purified (Ni-NTA, on-beads Ulp1 digestion, SEC)
B7: RBBP5_(390–480d) (C-terminal distal region 390–480 with the 422–443 loop deletion), Q15291 L399A; L400A; I457A; L459A (protein)
chain: B1 chain with L10A, L11A, I46A, L48A
B8: RBBP5_(393–480) construct (domain or fragment, human, UniProt Q15291 393-480, looked up)
chain: LEDSKALLYLPIAPEVEDPEENPYGPPPDAVQTSLMDEGASSEKKRQSSADGSQPPKKKPKTTNIELQGVPNDEVHPLLGVKGDGKSK
notes: RBBP5, human, residues 393-480; source: Rosetta cells, purified (Ni-NTA, on-beads Ulp1 digestion, SEC)
B9: RBBP5 C-terminal distal region (residues 381–538) (domain or fragment, human, UniProt Q15291 381-538, looked up)
chain: DPIAAFCSSDEELEDSKALLYLPIAPEVEDPEENPYGPPPDAVQTSLMDEGASSEKKRQSSADGSQPPKKKPKTTNIELQGVPNDEVHPLLGVKGDGKSKKKQAGRPKGSKGKEKDSPFKPKLYKGDRGLPLEGSAKGKVQAELSQPLTAGGAISELL
notes: also called RBBP5CTD; source: Rosetta cells, purified (Ni-NTA, on-beads Ulp1 digestion, SEC)
B10: RBBP5 390-467 (protein)
chain: DEELEDSKALLYLPIAPEVEDPEENPYGPPPDAVQTSLMDEGASSEKKRQSSADGSQPPKKKPKTTNIELQGVPNDEV
B11: RBBP5 390-474 (protein)
chain: DEELEDSKALLYLPIAPEVEDPEENPYGPPPDAVQTSLMDEGASSEKKRQSSADGSQPPKKKPKTTNIELQGVPNDEVHPLLGVK
B12: RBBP5 C-terminal construct (390–480) (domain or fragment, human, UniProt Q15291 390-480, looked up)
chain: DEELEDSKALLYLPIAPEVEDPEENPYGPPPDAVQTSLMDEGASSEKKRQSSADGSQPPKKKPKTTNIELQGVPNDEVHPLLGVKGDGKSK
notes: RBBP5, human, residues 390-480; also called RBBP5_(390–480); source: Rosetta cells, purified (Ni-NTA, on-beads Ulp1 digestion, SEC)
B13: RBBP5 404-538 (protein)
chain: IAPEVEDPEENPYGPPPDAVQTSLMDEGASSEKKRQSSADGSQPPKKKPKTTNIELQGVPNDEVHPLLGVKGDGKSKKKQAGRPKGSKGKEKDSPFKPKLYKGDRGLPLEGSAKGKVQAELSQPLTAGGAISELL
B14: RBBP5390-480d I457/L459A (protein)
chain: B1 chain with I46A, L48A
B15: RBBP5 381-480 (protein)
chain: DPIAAFCSSDEELEDSKALLYLPIAPEVEDPEENPYGPPPDAVQTSLMDEGASSEKKRQSSADGSQPPKKKPKTTNIELQGVPNDEVHPLLGVKGDGKSK
B16: RBBP5 WD40 propeller (residues 2–333) (domain or fragment)
chain: T1 chain

Key:
[1] = system: RBBP5 2-325 (Homo sapiens); assay: fluorescence polarization; details: FP: 20 mM HEPES pH 7.4, 150 mM NaCl, 0.1% BSA, 0.1 uM DNA, 25 C, 30 min; EMSA: 20 mM Tris-HCl pH 8.0, 150 mM NaCl, 10% glycerol, 0.1 uM nucleosome, on ice 1 h …
[2] = system: RBBP5 CTD3 (Homo sapiens); assay: fluorescence polarization; details: FP: 20 mM HEPES pH 7.4, 150 mM NaCl, 0.1% BSA, 0.1 uM DNA, 25 C, 30 min; EMSA: 20 mM Tris-HCl pH 8.0, 150 mM NaCl, 10% glycerol, 0.1 uM nucleosome, on ice 1 h …
[3] = system: RBBP5 full-length (Homo sapiens); assay: fluorescence polarization; details: FP: 20 mM HEPES pH 7.4, 150 mM NaCl, 0.1% BSA, 0.1 uM DNA, 25 C, 30 min; EMSA: 20 mM Tris-HCl pH 8.0, 150 mM NaCl, 10% glycerol, 0.1 uM nucleosome, on ice 1 h …
[4] = biological target: T2, RBBP5 WD40 propeller (residues 2–333) (human, UniProt Q15291 2-333); assay: ITC; RBBP5 C-terminal constructs, RBBP5_(390–480d) or its mutants (1 mM) injected into 0.1 mM RBBP5_(2–333); 300 mM NaCl, 25 mM Tris–HCl pH 8.0; 20°C; one-site model; details: both partners purified
T2 construct: source: Rosetta cells, purified (Ni-NTA, on-beads Ulp1 digestion, SEC)

[5] = biological target: T3, RBBP5 WD40 propeller with residues 10–325 (RBBP5_(10–325)) (human, UniProt Q15291 10-325, selenomethionine (Se-Met derivative protein)); assay: crystal structure; RBBP5_(10–325) and RBBP5_(390–480d) mixed at 1:2 and purified by SEC; crystals in 0.1 M HEPES-Na pH 7.5, 2% PEG 400, 2.0 M ammonium sulfate, 16°C; Se-Met SAD, 1.8 Å; details: both partners purified
T3 construct: RBBP5, human, residues 10-325 (WD40 propeller); native and Se-Met complexes were both crystallised; the solved dataset is of the Se-Met crystal; also called SeMet RBBP5_(10–325); source: Rosetta cells (Se-Met derivative grown in M9 minimal media), purified (Ni-NTA, on-beads Ulp1 digestion, SEC)

[6] = biological target: T1, RBBP5 WD40 propeller (residues 2–333), …; assay: ITC; details: chain shown with the change; 25mM Tris–HCl, 300 mM NaCl, pH 8.0
[7] = biological target: B16; assay: ITC
[8] = biological target: B16; assay: ITC; 300 mM NaCl
[9] = biological target: B16; assay: ITC; 800 mM NaCl
[10] = biological target: T2, RBBP5 WD40 propeller (residues 2–333); assay: ITC; RBBP5_(381–538) (1 mM) titrated into 0.1 mM RBBP5_(2–333); 150 mM NaCl, 25 mM Tris–HCl pH 8.0 (300 and 800 mM NaCl also tested); 20°C; one-site model; details: both partners purified
[11] = biological target: B16; assay: ITC
[12] = biological target: T4, RBBP5_(390–480d) (C-terminal distal region 390–480 with the 422–443 loop deletion) (human, UniProt Q15291 390-480, 422–443 loop deletion); assay: ITC
[13] = biological target: T4, RBBP5_(390–480d) (C-terminal distal …); assay: ITC; remark: listed apart in the source

What does the source list for FAM-labelled 167-bp dsDNA?
Kd [1]: 35.1 µM; Kd [2]: 13.3 µM; Kd [3]: 11.5 µM

Does B1 bind [4]?
Result: binds

Does B1 bind [5]?
Result: binds

Does B2 bind [4]?
Result: binds

With B3 as the molecule, how does the Kd [4] read?
Its Kd is roughly 70 µM.

And the “fold decrease in affinity against wild-type RBBP5_(CTDM)” value [4]?
The value was roughly 13 fold.

Which Kd [4] does the source give for B4 here?
Its Kd is roughly 70 µM.

And the “fold decrease in affinity against wild-type RBBP5_(CTDM)” value [4]?
Its value is roughly 13 fold.

Does B5 bind [4]?
Result: binds

How did the Kd [6] turn out when B6 was run?
The Kd was 19.1 µM.

Does B6 bind [4]?
Result: binds

How did the Kd [6] turn out when B7 was run?
The Kd was 369 µM.

Which Kd [7] does the source give for B8 here?
Its Kd is 20.3 µM.

Does B8 bind [4]?
Result: binds

How did the Kd [7] turn out when B9 was run?
Its Kd is 9.7 µM.

What about the Kd [8] of the same molecule?
Its Kd is 9.7 µM.

And the Kd [9]?
Its Kd is 24.6 µM.

What about the Kd [10] of the same molecule?
Its Kd is 6.8 µM.

How did the Kd [7] turn out when B10 was run?
The Kd was 17.3 µM.

Which Kd [7] does the source give for B11 here?
Its Kd is 11.7 µM.

B12 was tested. Which Kd [7] did it give?
Its Kd is 7.5 µM.

Does B12 bind [4]?
Result: binds

B13 was tested. Which Kd [7] did it give?
The Kd was 59.8 µM.

For B14, which Kd [11] is on record?
The Kd was 108 µM.

How did the Kd [7] turn out when B15 was run?
The Kd was 9.6 µM.

With B16 as the molecule, how does the Kd [12] read?
The Kd was 4.3 µM.

And the Kd [13]?
Its Kd is 5.2 µM.
